The values below come from patent publication US8586706B2, “Peptide vaccine using mimic molecules of amyloid β peptide” (Kagoshima University, priority 2007, dated 2013).

In test [1] the target is T1, Aβ1-42 peptide (Homo sapiens, UniProt P05067).
T1 construct: Aβ1-42 was dissolved at a concentration of 40 μM in 20 mM phosphate buffer
Put plainly: Experiment of inhibition of amyloid β fibrillogenesis (thioflavine T fluorescence). The format is biochemical. Conditions: peptide 1.65, 16.5, 33 nM; Aβ1-42 40 μM, phosphate buffer pH 7.0; 0, 6, 24 hours; FIG. 8. Here is the method: The synthesized peptide (TAT-B6-L1, B6-L1-TAT, TAT-B7-C15, or TAT-B7-S15) was added at various concentrations (1.65 nM, 16.5 nM, and 33 nM) to the Aβ1-42 peptide diluted to 40 μM using 20 mM phosphate buffer (pH 7.0). The sample (10 μl) was recovered 0, 6, and 24 hours thereafter, 90 μl of 11 μM thioflavine T (Sigma)/phosphate buffer was added, and fluorescence intensity at 482 nm generated by the excitation light at 450 nm was measured using a multilabel plate counter, Wallac 1420 ARVO sx (Perkin-Elmer; Wellesley, Mass.).
Results of measuring activity of inhibiting Aβ1-42 fibrillogenesis by a fusion peptide of TAT and B6-L1, B7-C15, or B7-S15 are shown in FIG. 8. The experiment of inhibition of fibrillogenesis was conducted according to the procedures described in the experiment of inhibition of fibrillogenesis above.

Test [2] deals with B6 scFv. Put plainly: ELISA: binding of B6 scFv to plate-coated synthesized TAT fusion peptide. Also on record: species or system human. Conditions: ELISA plate coated with peptide 200 ng/well; B6 scFv at various concentrations; FIG. 7. Here is the method:
(5) The fusion peptide of TAT and B6-L1 was recognized by B6 scFv (FIG. 7). An ELISA plate was coated with the synthesized peptide TAT-B6-L1 or B6-L1-TAT under conditions of 200 ng/well. After addition of B6 scFv at various concentrations, binding activity thereof was inspected. A control peptide used was an unrelated peptide (GSGGGSCGYWRSEWGLCG)(SEQ ID NO: 32).
(In general: ELISA stands for enzyme-linked immunosorbent assay.)

The target of test [3] is T2, Aβ oligomers and Aβ fibers (Homo sapiens, UniProt P05067).
T2 construct: Aβ1-42 was dissolved at a concentration of 40 μM in 20 mM phosphate buffer
T2 sequence (P05067 672-713 limits assumed): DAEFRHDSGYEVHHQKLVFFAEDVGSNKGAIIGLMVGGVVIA
Put plainly: Experiment of precipitation of Aβ conformers by biotinylated peptide with streptavidin-magnet beads, Western blot. Conditions: biotinylated peptide added 1.5 hours after dissolution of Aβ1-42, FIG. 9. The format is binding. As for the experimental part: Aβ1-42 was dissolved at a concentration of 40 μM in 20 mM phosphate buffer (pH 7.0). The TAT-B6-L1 or TAT-B7-C15 peptide adjusted to 40 μM was added 1.5 hours thereafter at a ratio of 1:1 by liquid volume, and the reaction was allowed to proceed at 37° C. for 1 hour (final concentration: Aβ (20 μM)/synthesized peptide (20 μM)). After the reaction, an aliquot thereof was sampled as a sample before immunoprecipitation (“Before precipitation”), and the remaining sample was reacted with M-280 streptavidin-magnet beads (Dynal Biotech, Oslo, Norway) adjusted to 20 μg/μl on ice for 1 hour at a ratio of 1:1 by liquid volume (final concentration: Aβ (10 μM)/synthesized peptide (10 μM)/beads (10 μg/μl)). After the reaction, the beads were precipitated using a magnet to obtain “Supernatant.” To the precipitated beads, PBS was added in a liquid volume equal to that of the recovered supernatant to obtain a “Precipitate.” Each obtained sample was electrophoresed and subjected to Western blot analysis using anti-Aβ antibodies.
Aβ1-42 was dissolved at a concentration of 40 μM in 20 mM phosphate buffer (pH 7.0). The biotinylated TAT-B6-L1 or TAT-B7-C15 peptide was added thereto 1.5 hours thereafter, and the conjugates were precipitated using streptavidin-magnet beads.
On the technique in general: In western blotting, separated proteins are transferred to a membrane and probed.

No end group written: not given here. *: point of attachment. Biotin = O=C1N[C@H]2[C@H](CS[C@H]2CCCCC(=O)*)N1

T1 sequence (P05067 672-713 limits assumed): as above
B6 scFv, sequence (as listed by the source): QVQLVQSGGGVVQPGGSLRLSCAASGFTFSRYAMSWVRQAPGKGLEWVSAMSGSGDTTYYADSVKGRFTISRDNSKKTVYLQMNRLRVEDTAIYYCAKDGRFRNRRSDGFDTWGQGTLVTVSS
B6 scFv, sequence (as listed by the source): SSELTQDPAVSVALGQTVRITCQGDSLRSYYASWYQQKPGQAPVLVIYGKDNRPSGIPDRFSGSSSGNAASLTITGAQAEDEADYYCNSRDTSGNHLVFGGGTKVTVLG

Take “B6-L1-TAT: B6-L1 sequence having a TAT sequence fused at the carboxyl terminus, SEQ ID NO: 25 (Biotin-GMLDIFAPIRHVYGRKKRRQRRR)”: the “activity of inhibiting Aβ1-42 fibrillogenesis” value in test [1] is on record as “demonstrated to have the activity of inhibiting fibrillogenesis”. Also, in test [2], the “binding activity of B6 scFv to coated peptide” value is on record as “Binding reaction dependent on the amount of B6 scFv was observed”.

As to “GSGGGSCGYWRSEWGLCG (Designed peptide based on the sequence unrelated to B6 scFv) [control peptide, reference compound]”, the “activity of inhibiting Aβ1-42 fibrillogenesis” value in test [1] is reported as “no inhibiting activity”. Also, the “precipitation of Aβ oligomers or Aβ fibers by the peptide” value (shortened to “precipitation”) in test [3] is “No precipitation reaction was observed”.

For the substance “TAT-B6-L1: B6-L1 sequence having a TAT sequence fused at the amino terminus, SEQ ID NO: 24 (Biotin-YGRKKRRQRRRGMLDIFAPIRHV)”, in test [1], the “activity of inhibiting Aβ1-42 fibrillogenesis” value is “demonstrated to have the activity of inhibiting fibrillogenesis”. In addition, the “binding activity of B6 scFv to coated peptide” value in test [2] is on record as “Binding reaction dependent on the amount of B6 scFv was observed”. The “precipitation” value in test [3] was “such Aβ oligomers or Aβ fibers were observed in the precipitate”.

As for “TAT-B7-C15: B7-C15 sequence (glycine added to carboxyl terminus) having a TAT sequence fused at the amino terminus, SEQ ID NO: 26 (Biotin-YGRKKRRQRRRCYGTKPWMCG; cysteine pairing not given here)”, in test [1], the “activity of inhibiting Aβ1-42 fibrillogenesis” value is recorded as “demonstrated to have the activity of inhibiting fibrillogenesis”. In test [3], the “precipitation” value is reported as “such Aβ oligomers or Aβ fibers were observed in the precipitate”.

Regarding “TAT-B7-S15: B7-S15 sequence having a TAT sequence fused at the amino terminus, SEQ ID NO: 27 (Biotin-YGRKKRRQRRRSYGTKPWMSG)”, the “activity of inhibiting Aβ1-42 fibrillogenesis” value in test [1] was “demonstrated to have the activity of inhibiting fibrillogenesis”.
